The values that follow come from PMC6656774, “Functional importance of the oligomer formation of the cyanobacterial H^+ pump Gloeobacter rhodopsin” (Scientific Reports, 2019).

Like-named read-outs stand apart in the source and are kept apart here.

Data set [1] deals with T1, Asp121 (UniProt position 121, AYRYVDWLLTV). In words: UV-vis. The following applies: room temperature; 0.3 M NaCl; 6-mix buffer (1.37 mM citric acid, 0.46 mM ADA, 1.04 mM MOPS, 1.25 mM TAPS, 0.81 mM CHES, 1.39 mM CAPS); pH adjusted with HCl or NaOH; unphotolyzed (dark) state, retinal-bound, in nanodisc.
The target of the next data set is Asp97 (UniProt position 97, VFRYIDWLLTV). The settings on record: monomeric proteorhodopsin; cited from earlier work.
Data set [2] deals with T1, Asp121. The settings on record: DDM-solubilized, monomeric; cited from earlier work.
Data set [3] deals with the molecule itself. In words: sucrose density gradient centrifugation + absorption spectra (MSP amount per GR from A280); higher-density nanodisc band NDH, reconstituted at pH 5.5, separated on a 10-40% sucrose gradient; spectra in 6-mix buffer, pH 7, 0.3 M NaCl, set to the same peak at about 540 nm.

For the molecule “Gloeobacter rhodopsin H87M, monomer in nanodisc (Gloeobacter violaceus; H87M)”, the pKa (in general, the pH at which an ionisable group is half protonated) in the data set with Asp121 [1] is listed as “approximately 3.72”.

With “Proteorhodopsin (PR), monomeric (uncultured marine gamma-proteobacterium (the article says only that the gene came from a DNA fragment of gamma-proteobacteria))”, the pKa with Asp97 was 7.5–7.7.

Regarding “Gloeobacter rhodopsin H87M, DDM-solubilized (Gloeobacter violaceus; H87M)”, in the data set with Asp121 [2], the pKa result is given as “approximately 4”.

In the case of “Gloeobacter rhodopsin (GR), wild type, monomer in nanodisc (NDL) (Gloeobacter violaceus)”, the pKa in the data set with Asp121 [1] was found to be 7.41.

As to “Gloeobacter rhodopsin (GR), wild type, trimer in nanodisc (NDH) (Gloeobacter violaceus)”, in the data set with Asp121 [1], the pKa came out at 4.52.

B1: Gloeobacter rhodopsin (GR), wild type, C-terminal His-tagged (natural protein, Gloeobacter violaceus, UniProt Q7NP59 1-298, looked up)
chain: MLMTVFSSAPELALLGSTFAQVDPSNLSVSDSLTYGQFNLVYNAFSFAIAAMFASALFFFSAQALVGQRYRLALLVSAIVVSIAGYHYFRIFNSWDAAYVLENGVYSLTSEKFNDAYRYVDWLLTVPLLLVETVAVLTLPAKEARPLLIKLTVASVLMIATGYPGEISDDITTRIIWGTVSTIPFAYILYVLWVELSRSLVRQPAAVQTLVRNMRWLLLLSWGVYPIAYLLPMLGVSGTSAAVGVQVGYTIADVLAKPVFGLLVFAIALVKTKADQESSEPHAAIGAAANKSGGSLIS
modifications: retinal bound by a protonated Schiff base linkage (residue not given)
notes: Gloeobacter rhodopsin, H+ pump from the cyanobacterium Gloeobacter violaceus; The same protein was trapped as a trimer (nanodisc band NDH) and as a monomer (nanodisc band NDL) after reconstitution at pH 5.5; also called wild-type GR; trimeric GR (in NDH); source: E. coli BL21(DE3), solubilized with DDM, purified (Ni-NTA agarose); reconstituted into MSP1E3D1/POPC nanodiscs or kept in DDM
In the case of B1, in data set [3], the “MSP amount per GR, NDL against NDH” value is 3.3 fold and the stoichiometry N (usually a count of units in the complex or per binding partner) turned out to be 3.
